The IC50 is the point on the concentration scale where inhibition reaches its midpoint.

These results are taken from patent US20100087631A1 (Eli Lilly, published 2010).

Test [1] has as its target recombinant human HGF (R&D Systems, catalog #294-HG/CF) (human) (UniProt P14210). The experiment in a line: ELISA, human HGF coated on plate, isotype control at 1 ug/ml (column headed 510C2 HGF). (In general: ELISA stands for enzyme-linked immunosorbent assay.)
The target of test [2] is human GDF-8 (human) (UniProt O14793). As to the kind of experiment: ELISA, human GDF-8 coated on plate, isotype control at 1 ug/ml (column headed C12 GDF-8).
Test [3] shares this target. The experiment in a line: ELISA, human GDF-8 coated on plate, isotype control at 1 ug/ml (column headed 510C2 GDF-8).
For test [4], the target named is recombinant human GDF-11 (Peprotech, Inc., Cat. #120-11) (human) (UniProt O95390). The experiment in a line: ELISA, human GDF-11 coated on plate, isotype control at 1 ug/ml (column headed C12 GDF-11).
Sequence of recombinant human GDF-11 (Peprotech, Inc., Cat. #120-11) (human) (O95390 299-407 limits assumed): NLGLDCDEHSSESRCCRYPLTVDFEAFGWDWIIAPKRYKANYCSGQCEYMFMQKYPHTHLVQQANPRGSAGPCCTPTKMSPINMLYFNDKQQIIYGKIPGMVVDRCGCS
Test [5] shares this target. The experiment in a line: ELISA, human GDF-11 coated on plate, isotype control at 1 ug/ml (column headed 510C2 GDF-11).
For test [6], the target named is recombinant human HGF (R&D Systems, catalog #294-HG/CF) (human) (UniProt P14210). The experiment in a line: ELISA, human HGF coated on plate, isotype control at 1 ug/ml (column headed C12 HGF).
Sequence of recombinant human HGF (R&D Systems, catalog #294-HG/CF) (human) (P14210 32-728 limits assumed): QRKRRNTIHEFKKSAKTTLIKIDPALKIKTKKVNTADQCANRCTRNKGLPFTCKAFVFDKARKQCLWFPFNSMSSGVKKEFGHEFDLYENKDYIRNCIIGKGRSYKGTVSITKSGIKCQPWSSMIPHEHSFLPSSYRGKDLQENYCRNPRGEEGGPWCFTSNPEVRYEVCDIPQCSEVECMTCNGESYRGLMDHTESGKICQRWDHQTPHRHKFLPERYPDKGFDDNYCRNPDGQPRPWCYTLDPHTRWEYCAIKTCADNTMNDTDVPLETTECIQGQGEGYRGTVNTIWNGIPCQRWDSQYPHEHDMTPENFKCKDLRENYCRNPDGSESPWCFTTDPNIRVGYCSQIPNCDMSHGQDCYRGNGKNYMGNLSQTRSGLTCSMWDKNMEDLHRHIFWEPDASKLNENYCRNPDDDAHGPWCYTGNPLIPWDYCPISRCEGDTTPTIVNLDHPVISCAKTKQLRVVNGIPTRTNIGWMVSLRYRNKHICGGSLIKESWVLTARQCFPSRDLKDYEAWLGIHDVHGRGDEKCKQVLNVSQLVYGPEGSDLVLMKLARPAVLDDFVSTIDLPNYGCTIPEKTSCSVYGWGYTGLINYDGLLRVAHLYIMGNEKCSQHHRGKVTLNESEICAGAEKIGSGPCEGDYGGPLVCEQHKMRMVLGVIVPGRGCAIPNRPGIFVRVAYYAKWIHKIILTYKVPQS
Test [7] addresses T1, recombinant mouse myostatin (R&D systems, Cat. #788-G8/CF) (mouse, UniProt O08689 268-376).
T1 construct: Bought protein; also called GDF-8; myostatin (R&D Systems 788-G8)
T1 sequence: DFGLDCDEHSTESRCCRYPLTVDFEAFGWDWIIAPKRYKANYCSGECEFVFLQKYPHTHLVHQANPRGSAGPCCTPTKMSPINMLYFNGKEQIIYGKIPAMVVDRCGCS
As to the kind of experiment: ELISA, GDF-8 coated on plate (GDF-8 down), Fab titrated, anti-kappa AP detection.

Turning to isotype control antibody, the average absorbance at 490 nm in test [1] is 0.0804 OD 490 nm; in test [2], 0.0519 OD 490 nm; in test [3] it was 0.0907 OD 490 nm; in test [4] it was 0.0487 OD 490 nm; in test [5] it was 0.0919 OD 490 nm; in test [6], 0.049 OD 490 nm.

B1: C12 Fab (Fab, V domains shown)
VH: QLQLQESGPGLVKPSETLSLTCTVSGFSLRKVGSSVSWIRQPPGKGLEWIGHIYWDDDKRLNPSLRNRVTISVDTSKNQFSLKLSSVTAADTAVYYCARRAITTVIGGGTFDLWGQGTLVTVSS
VL: DIQMTQSPSSLSASVGDRVTITCSASSSISYMHWYQQKPGKAPKLLIYDTSKLARGVPSRFSGSGSGTDFTLTISSLQPEDFATYYCQQWYLNPLTFGGGTKVEIKR
With B1, in test [7], the IC50 turned out to be 0.25 µg/mL.
